Reference: patent publication US10227617B2, “Sequestration of carbon dioxide with hydrogen to useful products” (UNIVERSITY OF GEORGIA RESEARCH FOUNDATION, INC., priority 2012, dated 2019)
Entries after “also recorded” stand apart in the source; their conditions may differ.

What was measured:
P. furiosus cultures = test: Stability of 3-HP added to P. furiosus cultures; format: cell-based, Pyrococcus furiosus
[1] = Ligase activity over a range of short-chain linear organic acids; format: biochemical
Protocol: (§1) Two assays were used to measure ligase activity, one spectrophotometric and one using high-performance liquid chromatography (HPLC). A discontinuous assay was used to measure substrate-dependent disappearance of CoA at 75° C. The reaction mixture (600 μl) contained 100 mM MOPS-KOH (pH 7.9), 5 mM MgCl2, 2.5 mM ATP, 0.15 mM CoA, and purified enzyme. At each time point, 80 μl of reaction mixture was added to 80 μl cold 5,5′-dithiobis-(2-nitrobenzoic acid) (DTNB). A time point (0 min) was taken before heating. The reaction mixture was incubated for 2 min at 75° C., followed by addition of substrate. Additional time points were taken at 30, 60, 90, 120, and 180 sec after addition of substrate. Absorbance was measured at 412 nm to determine free CoA concentration, based on the concentration of 2-nitro-5-thiobenzoate dianion (NTB^2−) (ε412=14,150 M^−1 cm^−1) (Hawkins et al., 2011, ACS Catal. 1, 1043-1050, Riddles et al., 1983, Methods in Enzymology 91, 49-60). Enzymes were kinetically characterized by varying the concentration of the […] substrate from 0.05 mM to 12 mM, while the other substrate concentrations were held constant. Measurements for specific activity were taken under saturating substrate concentrations (10 mM). Formation of the CoA ester was also confirmed using HPLC (Waters). […]

[2] = 4-hydroxybutyrate-CoA synthetase assay (DTNB; HPLC confirmation); format: biochemical
Protocol: A time point (0 min) was taken before heating.
The soluble, heat-treated lysate was loaded onto the column with binding buffer (50 mM sodium phosphate, 300 mM NaCl, 20 mM imidazole, pH 7.4) and the his-tagged enzyme removed with elution buffer (50 mM sodium phosphate, 300 mM NaCl, 500 mM imidazole, pH 7.4).

[3] = CoA synthetase assay (DTNB), substrate propionate; format: biochemical; conditions: saturating substrate concentrations
Protocol: (§2) Two assays were used to measure ligase activity, one spectrophotometric and one using high-performance liquid chromatography (HPLC). A discontinuous assay was used to measure substrate-dependent disappearance of CoA at 75° C. The reaction mixture (600 μl) contained 100 mM MOPS-KOH (pH 7.9), 5 mM MgCl2, 2.5 mM ATP, 0.15 mM CoA, and purified enzyme. At each time point, 80 μl of reaction mixture was added to 80 μl cold 5,5′-dithiobis-(2-nitrobenzoic acid) (DTNB). A time point (0 min) was taken before heating. The reaction mixture was incubated for 2 min at 75° C., followed by addition of substrate. Additional time points were taken at 30, 60, 90, 120, and 180 sec after addition of substrate. Absorbance was measured at 412 nm to determine free CoA concentration, based on the concentration of 2-nitro-5-thiobenzoate dianion (NTB^2−) (ε412=14,150 M^−1 cm^−1) (Hawkins et al., 2011, ACS Catal. 1, 1043-1050, Riddles et al., 1983, Methods in Enzymology 91, 49-60). Enzymes were kinetically characterized by varying the concentration of the acyl-CoA substrate from 0.05 mM to 12 mM, while the other substrate concentrations were held constant. Measurements for specific activity were taken under saturating substrate concentrations (10 mM). Formation of the CoA ester was also confirmed using HPLC (Waters). […]

[4] = CoA synthetase (acyl-CoA ligase) assay, disappearance of CoA (DTNB), substrate acetate; format: biochemical; conditions: saturating substrate concentrations
Protocol: as §2

[5] = CoA synthetase assay, substrate hexanoic acid; format: biochemical; conditions: six carbon hexanoic acid
Protocol: as §1

E9 = target: T1, E9 (Metallosphaera sedula, UniProt A4YGN0); test: NADPH-dependent assay for E9 in cell-free extracts; format: biochemical
T1 construct: expressed in transfected cells; host or cells: Pyrococcus furiosus strain MW43 (SP2B operon integrated at genome region 2); cell-free extract
T1 sequence (A4YGN0 1-360): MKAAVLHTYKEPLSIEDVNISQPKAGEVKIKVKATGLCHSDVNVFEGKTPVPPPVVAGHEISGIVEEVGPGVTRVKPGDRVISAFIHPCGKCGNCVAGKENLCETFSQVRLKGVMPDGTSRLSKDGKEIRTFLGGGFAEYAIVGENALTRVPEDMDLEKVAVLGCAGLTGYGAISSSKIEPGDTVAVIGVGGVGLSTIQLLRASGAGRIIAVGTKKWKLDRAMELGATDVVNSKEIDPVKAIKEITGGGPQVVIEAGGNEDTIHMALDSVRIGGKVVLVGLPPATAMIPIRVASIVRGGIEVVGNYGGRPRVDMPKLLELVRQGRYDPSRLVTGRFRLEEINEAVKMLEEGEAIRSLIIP
Protocol: NADPH-dependent assay for E9 of the SP2B subpathway (FIG. 36). Assays were carried out in sealed anaerobic cuvettes at 75° C. containing 100 mM MOPS pH 7.5 (measured at room temperature), 5 mM MgCl2, 5 mM DTT, 1 mM NADPH and the cell-free extract of P. furiosus (0.25 mg/ml). After addition of 1 mM succinic semialdehyde, NADPH oxidation was determined by the absorbance at 340 nm and rates were calculated based on the difference before and after the addition of the succinic semialdehyde.

O=C(O)CCO [3-HP, 3-hydroxypropionic acid]
stability when added to P. furiosus cultures (P. furiosus cultures): stable

B1: Msed_1353-G424: single substitution mutant (Trp424 to Gly) of acetate/propionate synthetase Msed_1353, SEQ ID NO:18 (protein, listed as Metallosphaera sedula)
chain: MSQPENESGLPFQEKVVPELLKHRLVTPEEYLRIHKKTVENYQEYWESVAKELDWFKPWEKALDDSHPPFYKWFVGGELNASYLAVDRHANSWRRNKVAIIWEGEPWENGPKEVRKLTYLDLYREVNRAAYLLKEVYGLKKGDTIGIYLPMIPELPIFMLAAARLGVAFTVVFSGFSAQAVADRMNDADTKLLITADGGWRRGKVIPLKEIVDKALETATTVKNVLVVRRTGTEISMKPGRDAYLHDVMSKVPIKAYVEPERVKSEDPLYILYTSGTTGKPKGIIHDTGGYMTLLHNTMKLVFDIRDTDVFWCTADIGWVTGHSYIVFGPLQEGATEVMYEGALDFPEPDRWVSIIERHQVSILYTSPTAIRTFMKQGEQWIKKHDVSSVRLMHSVGEPINPEAWRWFHKLVGRGQVPFGSTWGMTETGGIMISHMPGGYLVPMKPGTNGPPLLGIETNVFDEEGKPMPEEQKGYLVITKPWPGMPLTINKDPERYVKVYWNKFPNVFYAGDYAIKDRDGYFWILGRADEVMKIAGHRIGTYELESALVQHPAIAEAAVVGVPDPVRGEVAEAFVILRSGVEPSAKLREEIVKFVRENFGPIAVFREIHFVSKLPKTRSGKIMRRVIKAVATNSPVGDVTTLEDEASVEEVKKAFQELKEQVGK
substrates on which activity was shown [1]: activity on C4-C8 substrates; also recorded: activity on 3HP, 4HB, valerate, hexanoate, and even octanoate
decrease of activity of mutant versus native enzyme ([1]; on acetate and propionate): 60%
specific activity ([2]; 4HB, saturating substrate concentrations): 1.8 µmol/min/mg
specific activity [3]: 3.5 µmol/min/mg
specific activity [4]: 3.6 µmol/min/mg

B2: Msed_0394: recombinant M. sedula enzyme with 4-hydroxybutyrate:CoA ligase activity, annotated AMP-dependent synthetase and ligase, SEQ ID NO:13 (protein, listed as Metallosphaera sedula)
chain: MGGFKIPNYEGVDPTGSWYSVLTPLLFLERAGKYFKDKTAVVYRDSRYTYSTFYDNVMVQASALMRRGFSREDKLSFISRNRPEFLESFFGVPYAGGVLVPINFRLSPKEMAYIINHSDSKFVVVDEPYLNSLLEVKDQIKAEIILLEDPDNPSASETARKEVRMTYRELVKGGSRDPLPIPAKEEYSMITLYYTSGTTGLPKGVMHHHRGAFLNAMAEVLEHQMDLNSVYLWTLPMFHAASWGFSWATVAVGATNVCLDKVDYPLIYRLVEKERVTHMCAAPTVYVNLADYMKRNNLKFSNRVHMLVAGAAPAPATLKAMQEIGGYMCHVYGLTETYGPHSICEWRREWDSLPLEEQAKLKARQGIPYVSFEMDVFDANGKPVPWDGKTIGEVVMRGHNVALGYYKNPEKTAESFRDGWFHSGDAAVVHPDGYIEIVDRFKDLINTGGEKVSSILVEKTLMEIPGVKAVAVYGTPDEKWGEVVTARIELQEGVKLTEEEVIKFCKERLAHFECPKIVEFGPIPMTATGKMQKYVLRNEAKAKANKEKS
activity with hexanoic acid [5]: No activity
production of 4HB-CoA from 4HB and CoA ([2]; reversed-phase HPLC): confirmed
rate of ligation of CoA to 4HB ([2]; substrate 4HB): 0.22 µmol·min/mg

B3: E9: M. sedula succinate semialdehyde reductase, SEQ ID NO:12, in extracts of strain MW43 (protein, listed as Metallosphaera sedula)
chain: T1 sequence (A4YGN0 1-360)
half-life of E9 (E9; at 90° C, cell-free extracts): ~30 min
assay temperature of maximum E9 activity (E9; cell extracts): above 80 °C
